Sequences and labels used below:
B1: HDV Ribozyme (parent)
chain: GGCCGGCAUGGUCCCAGCCUCCUCGCUGGCGCCGGCUGGGCAACAUUCCGAGGGGACCGUCCCCUCGGUAAUGGCGAAUGGGACCCA

The data set covers variants of B1. As to the kind of experiment: self-cleavage, relative activity (ratio to wild type); higher = more cleavage; co-transcriptional.
With G5A G68U, the self-cleavage was 0.146.

For the variant C24U G31A, the self-cleavage stood at 0.169.

As for C22G G39C, the self-cleavage was 0.0554.

As to C22U U37G, the self-cleavage came to 0.101.

Take C4A C19A: the self-cleavage was 0.0386.

For the variant C64A U72C, the self-cleavage stood at 0.465.

G39C A83C: the self-cleavage was 0.243.

For U47C A87U, the self-cleavage is 0.746.

With U47G C48A, the self-cleavage is 0.798.

Regarding U27A C58A, the self-cleavage came out at 0.997.

As to U46C, the self-cleavage is 0.815.

With C14G G34U, the self-cleavage amounted to 0.0594.

G28A C84G: the self-cleavage stood at 0.0378.

Regarding U20A A71U, the self-cleavage is 0.0504.

With G34C G38A, the self-cleavage came to 0.0959.

A8U G59A: the self-cleavage came out at 0.79.

Regarding G17A C66G, the self-cleavage is 0.652.

For the variant G2A C21U, the self-cleavage amounted to 0.0161.

Take C61G G76C: the self-cleavage amounted to 0.967.

On to A42C C58A, for which the self-cleavage was determined as 0.364.

As for A45U C64A, the self-cleavage was 0.882.

Turning to G10A G40C, the self-cleavage stood at 0.302.

For the variant U20C U60A, the self-cleavage was found to be 0.115.

For C64G A71G, the self-cleavage came to 1.11.

In the case of U37A G38U, the self-cleavage was found to be 0.151.

For A70G G73A, the self-cleavage was 0.432.

For C3A G39A, the self-cleavage is 0.067.

As for C44A C57A, the self-cleavage was 0.752.

On to A51U C86G, for which the self-cleavage is 1.21.

Turning to U47A C64A, the self-cleavage was found to be 1.08.

Consider C22G U72G, for which the self-cleavage is 0.0554.

Consider G82A A87C, for which the self-cleavage stood at 0.583.

In the case of A8U G50U, the self-cleavage was found to be 0.848.

Turning to C30A G55C, the self-cleavage is 0.653.

For G17U G80U, the self-cleavage is 0.156.

G5A C57A: the self-cleavage is 0.0449.

G52C G55A: the self-cleavage came to 0.901.

Take C36U A42U: the self-cleavage was 0.208.

As to A77G A78G, the self-cleavage is 0.277.

Take A51U C63A: the self-cleavage came to 0.911.

Regarding C58A C86G, the self-cleavage worked out at 0.909.

Consider G35U G40C, for which the self-cleavage is 0.136.

As for U9C A51G, the self-cleavage was 0.962.

As for G25U G39U, the self-cleavage was determined as 0.0302.

Take A42C G76A: the self-cleavage was 0.113.

As for U46C A51G, the self-cleavage was found to be 0.639.

Take C18G G29A: the self-cleavage amounted to 0.217.

With G11C U47G, the self-cleavage was found to be 0.383.

Take C19U G39A: the self-cleavage amounted to 0.0779.

C4A A56C: the self-cleavage is 0.287.

Consider A8U C13U, for which the self-cleavage was 0.302.

As for U23C G50A, the self-cleavage came to 0.95.

With G35A C58U, the self-cleavage was 0.478.

On to G28A A78U, for which the self-cleavage is 0.0308.

In the case of C14U G67U, the self-cleavage came to 1.08.

For the variant A77C G82U, the self-cleavage amounted to 0.0755.

On to A45G C62G, for which the self-cleavage was determined as 0.587.

For the variant G6A C48A, the self-cleavage worked out at 0.465.

As to G80U G82U, the self-cleavage amounted to 0.147.

Take C24U C86G: the self-cleavage worked out at 0.577.

With C15A C19A, the self-cleavage amounted to 0.147.

On to G55U G68C, for which the self-cleavage is 0.744.

Regarding G67C U79C, the self-cleavage stood at 0.305.

Turning to G52C C57A, the self-cleavage was determined as 0.817.

On to G17U U46G, for which the self-cleavage was determined as 0.0554.

Take A42U A83U: the self-cleavage worked out at 0.142.

With C32A U47G, the self-cleavage was determined as 0.246.

For the variant G35U A70C, the self-cleavage turned out to be 0.354.

Take U27C C58U: the self-cleavage was found to be 0.539.

Take C24U U27A: the self-cleavage came out at 0.399.

Consider U12G G31U, for which the self-cleavage amounted to 0.277.

On to C15A C58U, for which the self-cleavage was 0.458.

For C48U C66G, the self-cleavage is 0.658.

For the variant C15U C85G, the self-cleavage is 0.831.

For G25A C41A, the self-cleavage came to 0.212.

Take C26A C64A: the self-cleavage was determined as 1.02.

For the variant A51G U69G, the self-cleavage was found to be 1.09.

With G81U C85G, the self-cleavage was found to be 0.212.

On to A78G C86A, for which the self-cleavage is 0.727.

Turning to G1A G76U, the self-cleavage is 0.185.

In the case of C36A G76U, the self-cleavage stood at 0.119.

Regarding C75G C84U, the self-cleavage was found to be 0.0978.

On to C61A C86G, for which the self-cleavage turned out to be 0.908.

As for G52U C64A, the self-cleavage turned out to be 0.911.

As for G17C G74C, the self-cleavage came out at 0.

As for C22G G38A, the self-cleavage was 0.0231.

Take U12C C15G: the self-cleavage is 0.147.

On to G17A C58U, for which the self-cleavage worked out at 0.588.

On to C30A C63G, for which the self-cleavage was 0.251.

For the variant C13U C22U, the self-cleavage was 0.193.

On to U20G C44A, for which the self-cleavage came to 0.262.

For C4G C36A, the self-cleavage turned out to be 0.0241.

Turning to G10A G11U, the self-cleavage worked out at 0.095.

G67U G73A: the self-cleavage worked out at 0.451.

As to C26G G28C, the self-cleavage was determined as 0.0504.

Regarding G28C A87U, the self-cleavage amounted to 0.0455.

Take C7G G29U: the self-cleavage was 0.

As to G34A G80U, the self-cleavage is 0.0903.

For the variant C14U G17U, the self-cleavage turned out to be 0.511.

For A51U C64G, the self-cleavage came to 0.578.

For the variant G25A U72G, the self-cleavage came to 0.104.

For C62U C86A, the self-cleavage worked out at 0.82.

Take G67C A78C: the self-cleavage worked out at 0.0639.

On to G5C C32A, for which the self-cleavage is 0.0615.

As to G10C U46C, the self-cleavage was determined as 0.475.

As for C58A C64A, the self-cleavage came to 0.962.

Consider C7U C49G, for which the self-cleavage worked out at 0.665.

Turning to G28U A71U, the self-cleavage amounted to 0.246.

Regarding C19G G35C, the self-cleavage was found to be 0.208.

Take C57A C58A: the self-cleavage was found to be 1.07.

For the variant C24G G34C, the self-cleavage turned out to be 0.0437.

Regarding A16G G67C, the self-cleavage worked out at 0.849.

For U46C G53C, the self-cleavage was 0.739.

For U65G, the self-cleavage is 0.988.

With C30U A56G, the self-cleavage came to 0.665.

U9A A45C: the self-cleavage is 0.723.

On to C30A G74A, for which the self-cleavage turned out to be 0.123.

On to C36U A43C, for which the self-cleavage worked out at 0.

In the case of U9G C75U, the self-cleavage amounted to 0.222.

Take C15U C48G: the self-cleavage is 1.13.

Regarding U46C A71G, the self-cleavage stood at 1.2.

C61U U65A: the self-cleavage turned out to be 0.616.

On to C26G U27G, for which the self-cleavage turned out to be 0.208.

Regarding A45U A83U, the self-cleavage is 0.128.

Take U23A C44G: the self-cleavage was determined as 0.594.

Turning to U37A C63G, the self-cleavage was 0.17.

As to G11A U12C, the self-cleavage was found to be 0.0415.

Turning to G29C G68C, the self-cleavage was determined as 0.0449.

As to C30U G76C, the self-cleavage worked out at 0.683.

With C3A U12C, the self-cleavage came to 0.0615.

Turning to C3G C32G, the self-cleavage turned out to be 0.0282.

Turning to G10C C85G, the self-cleavage is 0.76.

Regarding C14A G67A, the self-cleavage is 0.435.

As for U37G A71U, the self-cleavage came to 0.0594.

As to G11U U79A, the self-cleavage was 0.148.

Turning to C18A G81U, the self-cleavage was determined as 0.0817.

Turning to G68C G81C, the self-cleavage stood at 0.0594.

For C62A U72G, the self-cleavage is 0.617.

For G5U C26U, the self-cleavage amounted to 0.864.

Regarding U12A G40U, the self-cleavage was 0.111.

Regarding C24G G67C, the self-cleavage amounted to 0.026.

In the case of U12A G52C, the self-cleavage is 0.453.

For C44U A51U, the self-cleavage is 0.789.

G29U G67U: the self-cleavage was 0.0817.

For the variant U65A A71U, the self-cleavage was 0.76.

Regarding C7G G38C, the self-cleavage is 0.0594.

Consider G68U A71C, for which the self-cleavage was 0.973.

In the case of U9C C19G, the self-cleavage turned out to be 0.0519.

With U60C A71U, the self-cleavage amounted to 0.665.

On to G68C U79C, for which the self-cleavage was 0.302.

U9G A51U: the self-cleavage was found to be 1.22.

Turning to G1A A70U, the self-cleavage turned out to be 0.

On to C13U C66U, for which the self-cleavage worked out at 0.698.

On to C36G A78C, for which the self-cleavage turned out to be 0.161.

G29U C62G: the self-cleavage was determined as 0.

Consider C14G A87C, for which the self-cleavage worked out at 0.793.

Take C26A C32U: the self-cleavage is 0.816.

Take G28A G54A: the self-cleavage is 0.0811.

As for C30U G54A, the self-cleavage stood at 0.571.

Regarding G34C G52U, the self-cleavage was determined as 0.155.

For the variant C14U A42C, the self-cleavage is 0.232.

Take G25A G59C: the self-cleavage was 0.332.

On to C64A G74A, for which the self-cleavage stood at 0.295.

Turning to C63U C75A, the self-cleavage came to 0.106.

With U23C G67U, the self-cleavage was 0.743.

For the variant C33A C57U, the self-cleavage was 0.46.

G5A C36U: the self-cleavage came to 0.18.
